Columns and labels:
[1] = molecular target: recombinant mouse C3d (C1010A) (mouse) (UniProt P01027); test: SPR
[2] = molecular target: FH19–20 19–20 (Homo sapiens) (UniProt P08603); test: SPR; details: cited from earlier work
FH19–20 19–20 (Homo sapiens), sequence (P08603 1104-1231): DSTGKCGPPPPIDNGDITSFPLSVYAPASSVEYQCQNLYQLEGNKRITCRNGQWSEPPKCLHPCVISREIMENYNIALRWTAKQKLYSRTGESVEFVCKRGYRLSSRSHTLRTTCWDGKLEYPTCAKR

recombinant mouse C3d (C1010A) (mouse), sequence (P01027 1002-1303 C1010A): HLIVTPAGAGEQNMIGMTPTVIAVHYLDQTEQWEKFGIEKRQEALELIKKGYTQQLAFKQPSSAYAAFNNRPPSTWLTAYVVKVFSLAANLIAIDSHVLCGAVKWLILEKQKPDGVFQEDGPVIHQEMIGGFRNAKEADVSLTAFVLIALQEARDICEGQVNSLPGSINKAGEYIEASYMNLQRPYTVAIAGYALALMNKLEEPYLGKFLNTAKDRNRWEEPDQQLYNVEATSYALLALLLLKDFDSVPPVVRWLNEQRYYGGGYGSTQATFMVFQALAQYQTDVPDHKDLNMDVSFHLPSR
C3d C3d, sequence (P01024 1002-1303): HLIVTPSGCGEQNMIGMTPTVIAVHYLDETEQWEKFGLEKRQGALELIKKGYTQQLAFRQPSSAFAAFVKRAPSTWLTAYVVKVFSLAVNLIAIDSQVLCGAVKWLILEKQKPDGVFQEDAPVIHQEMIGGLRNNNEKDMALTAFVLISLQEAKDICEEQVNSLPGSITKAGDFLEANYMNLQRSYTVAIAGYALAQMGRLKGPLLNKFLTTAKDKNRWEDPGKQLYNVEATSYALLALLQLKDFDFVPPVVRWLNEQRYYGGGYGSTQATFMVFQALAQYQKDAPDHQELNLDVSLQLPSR

With “recombinant mouse Factor H-related protein B (natural protein)” the Kd [1] was 546 nM.

In the case of “recombinant mouse Factor H-related protein C (natural protein)”, the Kd [1] is reported as 1040 nM.

In the case of C3d C3d (from UniProt P01024), the Kd [2] is listed as 180 nM.

“recombinant mouse Factor H-related protein A (prototype, class A clone 3A4/5G4) (natural protein)” showed a Kd [1] of 136 nM.
